As a reminder, the stoichiometry N is a count of units in the complex or per binding partner. As a reminder, the Kd is the concentration at which binding is half-saturated. A low value points to higher affinity.

The text below walks through data of article PMC9262907, “Modulating mitofusins to control mitochondrial function and signaling” (Nature Communications, 2022).

Data set [1] deals with the molecule itself. Kind of data set: native gel or EMSA; BN-PAGE of digitonin lysates of mitochondria isolated from MEFs, without GTP; blot with anti-MFN2. Background: Mobility shift assays separate free from complexed probe on a gel.
For data set [2], the target named is T1, MFN2-HR2 domain (residues 678–757) (human, UniProt O95140 678-757).
T1 chain: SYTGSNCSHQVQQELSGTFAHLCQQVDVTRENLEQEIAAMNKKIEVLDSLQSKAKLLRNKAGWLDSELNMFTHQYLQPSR
The data set is described as follows: MST.

Where no end group is shown, it is not given here.

B1: mitofusin-2 (MFN2) of MEF mitochondria (natural protein, mouse (endogenous in MEFs), UniProt Q80U63 1-757, looked up)
chain: MSLLFSRCNSIVTVKKDKRHMAEVNASPLKHFVTAKKKINGIFEQLGAYIQESASFLEDTHRNTELDPVTTEEQVLDVKGYLSKVRGISEVLARRHMKVAFFGRTSNGKSTVINAMLWDKVLPSGIGHTTNCFLRVGGTDGHEAFLLTEGSEEKKSVKTVNQLAHALHQDEQLHAGSMVSVMWPNSKCPLLKDDLVLMDSPGIDVTTELDSWIDKFCLDADVFVLVANSESTLMQTEKQFFHKVSERLSRPNIFILNNRWDASASEPEYMEEVRRQHMERCTSFLVDELGVVDRAQAGDRIFFVSAKEVLSARVQKAQGMPEGGGALAEGFQVRMFEFQNFERQFEECISQSAVKTKFEQHTVRAKQIAEAVRLIMDSLHIAAQEQRVYCLEMREERQDRLRFIDKQLELLAQDYKLRIKQITEEVERQVSTAMAEEIRRLSVLVDEYQMDFHPSPVVLKVYKNELHRHIEEGLGRNLSDRCSTAIASSLQTMQQDMIDGLKPLLPVSMRNQIDMLVPRQCFSLSYDLNCDKLCADFQEDIEFHFSLGWTMLVNRFLGPKNSRRALLGYSDQVQRPLPLTPANPSMPPLPQSSLTQEELMVSMVTGLASLTSRTSMGILVVGGVVWKAVGWRLIALSFGLYGLLYVYERLTWTTKAKERAFKRQFVEYASEKLQLIISYTGSNCSHQVQQELSGTFAHLCQQVDITRDNLEQEIAAMNKKVEALDSLQSRAKLLRNKAGWLDSELNMFTHQYLQPSR
notes: mitofusin-2 (MFN2), endogenous in mouse embryonic fibroblasts, detected with an anti-MFN2 antibody; source: endogenous, mitochondria isolated from MEFs, digitonin lysate
As to B1, the “stoichiometry N” value in data set [1] stood at 2.

B2: 367–384Gly peptide (peptide)
chain: QIAEAVRLIMDSLHMAAR
modifications: also: 'Gly' in name not defined
In turn, B2 showed a Kd in data set [2] of 3000 nM.

B3: 398–418Gly peptide (peptide)
chain: QDRLKFIDKQLELLAQDYKLR
modifications: also: 'Gly' in name not defined
As for B3, binding in data set [2] was characterised by a dissociation constant (Kd) of 1500 nM. Compared with the last molecule, the Kd is about 2-fold lower.
